How the values were obtained:
IR77 (wt-IR77) = molecular target: T1, IR77 (wt-IR77) (Ensifer adhaerens, UniProt A0A0L8BGL4, A208N); experiment: X-ray crystallography; format: binding; settings: cofactor site at the dimer interface; P2_12_12_1, one open and one closed active site
T1 construct: gene AC244_29830; domain-swapped homodimer, two active sites at the interface

[1] = substrate: O=C1CCCCC1; experiment: UV spectrophotometry, NADPH oxidation; format: biochemical, Ensifer adhaerens; settings: co-substrate pyrrolidine b at constant concentration
purified protein [2] = substrate: C1CCNC1; experiment: purified protein; settings: NADPH
purified protein [3] = substrate: c1ccc2c(c1)CNC2; experiment: purified protein; settings: co-substrate 10 mM cyclohexanone, NADPH
[4] = substrate: O=C1CCCCC1; experiment: UV spectrophotometry, NADPH oxidation; format: biochemical, Ensifer adhaerens; settings: co-substrate pyrrolidine b at constant concentration; remark: listed apart in the source
Source text: UV spectrophotometry, NADPH oxidation on IR77 (wt-IR77)

[5] = reductive amination, 16 mM and kcat 0.25
[6] = co-substrate 10 mM cyclohexanone, reductive amination
[7] = imine probably formed in solution and then reduced by the enzyme
[8] = imine probably formed in solution
[9] = co-substrate cyclohexanone at constant concentration

Molecule	Km (purified protein [3]; [8])	kcat (purified protein [3]; [8])	Km (purified protein [2]; [9])	kcat (purified protein [2]; [9])	kcat/Km (purified protein [2]; [9])	Km [4]	kcat [4]	kcat/Km [4]	also measured
NC(=O)c1ccc[n+]([C@@H]2O[C@H](COP(=O)(O)OP(=O)(O)OC[C@H]3O[C@@H](n4cnc5c(N)ncnc54)[C@H](OP(=O)(O)O)[C@@H]3O)[C@@H](O)[C@H]2O)c1 [NADP^+]									X-ray crystallography (IR77 (wt-IR77)): electron density for the cofactor NADP^+ was again clearly visible within the active sites
IR77 (wt-IR77) (Ensifer adhaerens) (protein, domain-swapped homodimer, two active sites at the interface) MKPSISVLGTGRMGSALARALLQAGYRTVVWNRTSEKAEPLAALGATVAPTVRQAIDASGIVIVNVSDYAATSTLLRASDVTPGLRGKLIVELTSGTPEGARETSQWTAAHGARYLDGAILATPDFIGTDAGTILLSGALEPFAANEDVFRALGGNVQHIGTEPGLANALDSAVLALMWGALFGGLHAIAVCRAEEIDLGELGRQWAATAPVVEGLVADLIKRTSAGRFVSDAETLSSISPHYGAFQHLKELMEARRIDRTVVDGYDAIFRRAIASGHLHDDFAALSQFMGKAEQP									Km [1, 5]: 15 mM; kcat [1, 5]: 0.24 s⁻¹; kcat/Km [1, 5]: 16 M⁻¹ s⁻¹; Km (purified protein [2]; [6]): 17 mM; kcat (purified protein [2]; [6]): 0.12 s⁻¹; kcat/Km (purified protein [2]; [6]): 7.2 M⁻¹ s⁻¹; Km (purified protein [3]; [7]): 0.61 mM; kcat (purified protein [3]; [7]): 0.30 s⁻¹
IR77 (wt-IR77) (Ensifer adhaerens; A208N) (protein, domain-swapped homodimer, two active sites at the interface) MKPSISVLGTGRMGSALARALLQAGYRTVVWNRTSEKAEPLAALGATVAPTVRQAIDASGIVIVNVSDYAATSTLLRASDVTPGLRGKLIVELTSGTPEGARETSQWTAAHGARYLDGAILATPDFIGTDAGTILLSGALEPFAANEDVFRALGGNVQHIGTEPGLANALDSAVLALMWGALFGGLHAIAVCRAEEIDLGELGRQWANTAPVVEGLVADLIKRTSAGRFVSDAETLSSISPHYGAFQHLKELMEARRIDRTVVDGYDAIFRRAIASGHLHDDFAALSQFMGKAEQP	0.94 mM	0.28 s⁻¹							Km [1]: 26 mM; kcat [1]: 0.5 s⁻¹; kcat/Km [1]: 20 M⁻¹ s⁻¹
IR77 (wt-IR77) (Ensifer adhaerens; A208S) (protein, domain-swapped homodimer, two active sites at the interface) MKPSISVLGTGRMGSALARALLQAGYRTVVWNRTSEKAEPLAALGATVAPTVRQAIDASGIVIVNVSDYAATSTLLRASDVTPGLRGKLIVELTSGTPEGARETSQWTAAHGARYLDGAILATPDFIGTDAGTILLSGALEPFAANEDVFRALGGNVQHIGTEPGLANALDSAVLALMWGALFGGLHAIAVCRAEEIDLGELGRQWASTAPVVEGLVADLIKRTSAGRFVSDAETLSSISPHYGAFQHLKELMEARRIDRTVVDGYDAIFRRAIASGHLHDDFAALSQFMGKAEQP	0.60 mM	0.23 s⁻¹	9.7 mM	0.21 s⁻¹	22 M⁻¹ s⁻¹				Km ([1]; kcat 0.44): 9.6 mM; kcat ([1]; kcat 0.44): 0.43 s⁻¹; kcat/Km ([1]; kcat 0.44): 45 M⁻¹ s⁻¹
IR77 (wt-IR77) (Ensifer adhaerens; C192I) (protein, domain-swapped homodimer, two active sites at the interface) MKPSISVLGTGRMGSALARALLQAGYRTVVWNRTSEKAEPLAALGATVAPTVRQAIDASGIVIVNVSDYAATSTLLRASDVTPGLRGKLIVELTSGTPEGARETSQWTAAHGARYLDGAILATPDFIGTDAGTILLSGALEPFAANEDVFRALGGNVQHIGTEPGLANALDSAVLALMWGALFGGLHAIAVIRAEEIDLGELGRQWAATAPVVEGLVADLIKRTSAGRFVSDAETLSSISPHYGAFQHLKELMEARRIDRTVVDGYDAIFRRAIASGHLHDDFAALSQFMGKAEQP			9.0 mM	0.1 s⁻¹	11 M⁻¹ s⁻¹	16 mM	0.33 s⁻¹	21 M⁻¹ s⁻¹	
IR77 (wt-IR77) (Ensifer adhaerens; A119S) (protein, domain-swapped homodimer, two active sites at the interface) MKPSISVLGTGRMGSALARALLQAGYRTVVWNRTSEKAEPLAALGATVAPTVRQAIDASGIVIVNVSDYAATSTLLRASDVTPGLRGKLIVELTSGTPEGARETSQWTAAHGARYLDGSILATPDFIGTDAGTILLSGALEPFAANEDVFRALGGNVQHIGTEPGLANALDSAVLALMWGALFGGLHAIAVCRAEEIDLGELGRQWAATAPVVEGLVADLIKRTSAGRFVSDAETLSSISPHYGAFQHLKELMEARRIDRTVVDGYDAIFRRAIASGHLHDDFAALSQFMGKAEQP			23 mM	0.09 s⁻¹	4 M⁻¹ s⁻¹	16 mM	0.25 s⁻¹	16 M⁻¹ s⁻¹	
